Publication PMC2777437

Tests used:
[1] = target: T1, RHD-CBFb complex (UniProt Q01196;Q13951 50-178;1-141); assay: fluorescence anisotropy
[2] = target: T1, RHD-CBFb complex; assay: fluorescence anisotropy; remark: listed apart in the source

T1 sequence (Q01196 50-178, chain 1 of 2): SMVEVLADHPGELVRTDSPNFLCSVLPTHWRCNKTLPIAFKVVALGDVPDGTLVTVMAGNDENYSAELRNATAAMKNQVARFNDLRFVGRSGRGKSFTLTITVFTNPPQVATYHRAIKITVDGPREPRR
T1 sequence (Q13951 1-141, chain 2 of 2): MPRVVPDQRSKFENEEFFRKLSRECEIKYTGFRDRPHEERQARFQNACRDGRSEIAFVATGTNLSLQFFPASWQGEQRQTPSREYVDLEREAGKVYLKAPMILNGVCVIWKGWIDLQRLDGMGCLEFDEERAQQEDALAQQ

| Binder | Kd [1] [nM] | binding result [2] |
| --- | --- | --- |
| GGUCCAGGCGCGUUAGCAAAACCGCGGAUC (structured_RNA, none) [Apt45A] | 162 ± 102 | – |
| ATTACCGGCGAGTTTTGAACCGCGTAAT (ssDNA) [DNA Apt28A] | – | no binding |
| AUUACCGGCGAGUUUUGAACCGCGUAAU (structured_RNA, none) [Apt28A] | 108 ± 34 | – |
